The results in this text go back to paper doi:10.1101/433045 (bioRxiv, 2020).

Holding throughout (assay): fluorescence polarisation
A general note: Polarisation of emitted light reports the rotation of a fluorescent probe.

In one test the target is T1, Nrd1 CID (S. cerevisiae, UniProt P53617 1-153).
T1 sequence: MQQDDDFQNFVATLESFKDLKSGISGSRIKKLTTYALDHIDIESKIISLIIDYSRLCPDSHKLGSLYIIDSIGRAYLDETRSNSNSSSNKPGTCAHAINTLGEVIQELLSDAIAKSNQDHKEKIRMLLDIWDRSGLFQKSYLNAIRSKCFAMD

The next test has as its target T2, Nrd1 CID L20D (S. cerevisiae, UniProt P53617 1-153, L20D).
T2 sequence: T1 sequence with L20D

A further test deals with T3, Nrd1 CID K21D (S. cerevisiae, UniProt P53617 1-153, K21D).
T3 sequence: T1 sequence with K21D

The target in a further test is T4, Nrd1 CID S25D (S. cerevisiae, UniProt P53617 1-153, S25D).
T4 sequence: T1 sequence with S25D

The target of the next test is T5, Nrd1 CID R28D (S. cerevisiae, UniProt P53617 1-153, R28D).
T5 sequence: T1 sequence with R28D

For test [1], the target named is Trf4 NIM peptide (S. cerevisiae).

Substitutions are numbered along the chain they refer to. No end group written: not given here. FAM = 5,6-carboxyfluorescein

Broadly, the Kd is the equilibrium constant for the complex coming apart. A high value points to lower affinity. Molecule {FAM}-DDDEDDYTPSIS [Sen1 NIM peptide] registered a Kd in the test with Nrd1 CID of 1200 ± 20 nM. For the same molecule, the binding result in the test with Nrd1 CID L20D, with Nrd1 CID K21D, with Nrd1 CID S25D and with Nrd1 CID R28D was “binds” in each case.

B1: Nrd1 CID (domain or fragment)
chain: T1 sequence
For B1, the Kd in test [1] was determined as 900 nM.
